Patent US8097425

B1: Pep1-2 (peptide)
peptide: Ac-SLFHPEDTGQ-biotin
B2: Pep1-1 (peptide)
peptide: Ac-HSLFHPEDTG-biotin

How the values were obtained:
hybridoma 2.11 = test: competition ELISA; signal of 2.11 on plate-bound Pep2-0 (competitor) with this free peptide; low = inhibited
hybridoma 2.03 = test: competition ELISA; signal of 2.03 on plate-bound Pep2-0 (competitor) with this free peptide; low = inhibited

| Binder | Maximum Reactivity (hybridoma 2.11) | Maximum Reactivity (hybridoma 2.03) |
| --- | --- | --- |
| B1 | 1.49 | 0.329 |
| B2 | 1.48 | 0.382 |
